Target: HLA-B*57:01–TW10 (human |  | HIV-1)
Assay: SPR

B1: KIR3DL1*001 (similar construct, from insect cells) (receptor)
chain: HMGGQDKPFLSAWPSAVVPRGGHVTLRCHYRHRFNNFMLYKEDRIHIPIFHGRIFQESFNMSPVTTAHAGNYTCRGSHPHSPTGWSAPSNPVVIMVTGNHRKPSLLAHPGPLVKSGERVILQCWSDIMFEHFFLHKEGISKDPSRLVGQIHDGVSKANFSIGPMMLALAGTYRCYGSVTHTPYQLSAPSDPLDIVVTGPYEKPSLSAQPGPKVQAGESVTLSCSSRSSYDMYHLSREGGAHERRLPAVRKVNRTFQADFPLGPATHGGTYRCFGSFRHSPYEWSDPSDPLLVSVTGNPS
**Q.** B1 was tested. Which Kd did it give?
**A.** ~60 µM
